Source: patent US20200150041

Tested on: SDM-25

MMP9 protease, sequence (chain, as listed by the source): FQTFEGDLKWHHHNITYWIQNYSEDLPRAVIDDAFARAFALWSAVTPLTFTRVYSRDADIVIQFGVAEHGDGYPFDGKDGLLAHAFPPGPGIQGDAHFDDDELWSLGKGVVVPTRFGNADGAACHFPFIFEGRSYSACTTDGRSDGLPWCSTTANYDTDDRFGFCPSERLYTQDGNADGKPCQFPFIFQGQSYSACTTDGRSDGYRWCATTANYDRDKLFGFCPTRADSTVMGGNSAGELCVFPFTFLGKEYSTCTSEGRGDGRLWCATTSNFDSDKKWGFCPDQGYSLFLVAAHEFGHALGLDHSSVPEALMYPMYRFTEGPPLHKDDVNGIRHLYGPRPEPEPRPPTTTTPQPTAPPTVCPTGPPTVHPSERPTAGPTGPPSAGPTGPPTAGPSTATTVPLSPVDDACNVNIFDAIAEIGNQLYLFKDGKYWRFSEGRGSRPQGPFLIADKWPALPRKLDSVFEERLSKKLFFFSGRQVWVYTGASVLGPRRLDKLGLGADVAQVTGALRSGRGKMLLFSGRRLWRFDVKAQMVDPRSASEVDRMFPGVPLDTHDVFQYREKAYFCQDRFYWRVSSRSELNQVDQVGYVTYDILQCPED

With MMP9 protease as the substance, how does the “fluorescence emission spectra (630 nm excitation) before and after protease treatment; FRET loss on cleavage” value read?
Its value is “After cleavage, Cy7 no longer quenches Cy5, resulting in an increase of the 670 nm Cy5 emission peak and a reduction of the Cy7 re-emission at 780 nm”.
